Laboratory results taken from paper PMC3462190, “A Peptidic Unconjugated GRP78/BiP Ligand Modulates the Unfolded Protein Response and Induces Prostate Cancer Cell Death” (PLoS ONE, 2012).
Where no end group is shown, it is not given here.

Experiments:
Format in all cases: cell-based
DU145 cells = assay: Clonogenic assay; settings: 19-mer expressing vector vs vector control; at least three experiments
Description: (§1) Figure 6 Selectivity of action of the Bag-1 peptide. A Amino acid sequence of the 19mer peptide and its deletion mutants. B GST pull-down assay performed incubating 400 µg of 22Rv.1 cell lysate and 25 µg of GST-fused deletion mutants of the 19mer peptide. After the pull-down experiment, Western blots were carried out with anti-GRP78/BiP and GST antibodies. C. Fluorescence polarization (FP) assays with a 10 nM FITC-labeled 7-mer Bag-1 peptide and dilutions of the GST-fused substrate binding domain of GRP78 in 60 µl of Tris-GSH buffer (50 mM Tris, 10 mM reduced glutathione and 0.1% BSA, pH 8.0). Triplicate samples were measured after 5 h of incubation at room temperature with an Infinite F-200 reader (Tecan) with excitation at 490 nm and emission at 535 nm. Binding constants were determined from three independent experiments using non-linear regression in Sigma Plot 10.0. D. Competition assays with a complex of 10 nM of FITC-labeled Bag-1 7-mer peptide and 0.75 mg/ml GST-fused GRP78 substrate binding domain was measured against a dilution series from 100 µM to 0.1 nM of wild-type Bag-1 7-mer peptide (filled line) or triple mutant peptide (dotted line) in 40 µl of Tris-GSH buffer. FITC-peptide and the FITC-peptide-protein complex were used as controls. Fluorescence polarization was determined as described above and IC50 values were determined in Sigma Plot. E. Clonogenic assay in 22Rv.1 cells with pcDNA3 based vectors coding for the N-terminal Bag-1 peptide (positive control), the 19mer and the 19mer mutant fragments as well as the empty expression vector (negative control). Cells were transfected with the indicated constructs and selected in medium containing neomycin. The colonies were stained and quantified. Shown as bar chats are the mean ± SEM of at least three independent experiments with three different plasmid preparations. (*p<0.05). F. In vivo luciferase refolding assay was performed in HEK-293 cells transfected at 70% confluency with 2 µg β-actin-fire fly luciferase construct, 3 µg pcDNA3 empty vector as control or pCMV6-GRP78, 6 µg pcDNA3.1-HA-19-mer or 19-mer mutant peptide and 0.5 µg Renilla luciferase construct to determine the transfection efficiency. Shown as bar charts is the mean of at least three different experiments ± SEM (*p<0.05). G. Clonogenic assay with the indicated malignant (LNCaP, DU145, PC3) and benign (BPH1, PNT2, RWPE1) prostate cell lines transfected with the vector control (black bars) and a vector expressing the 19-mer peptide (white bars). Shown are the mean ± SD of at least three different experiments performed with three different plasmid preparations (*p<0.05). H. Western blot analysis of cell lysates derived from the prostate cancer cells used for the colony forming assay with specific antibodies against GRP78 and β-actin.

LNCaP cells = assay: Clonogenic assay; settings: 19-mer expressing vector vs vector control; at least three experiments
Description: as §1

PC3 cells = assay: Clonogenic assay; settings: 19-mer expressing vector vs vector control; at least three experiments
Description: as §1

PNT-2 cells = assay: Clonogenic assay; settings: benign prostate cells, 19-mer vector vs control; at least three experiments
Description: as §1

RWPE-1 cells = assay: Clonogenic assay; settings: benign prostate cells, 19-mer vector vs control; at least three experiments
Description: as §1

22Rv.1 cells = assay: ER-stress induced apoptosis markers, Western blot in 22Rv.1 cells
Description: Unless otherwise stated, stable transfection was carried out in 22Rv.1 or BPH-1 cells with 10 µg of plasmid DNA using FuGene 6™ (Roche Diagnostics Mannheim, Germany) Stably transfected 22Rv.1 cells were selected with 0.8 mg/ml while BPH-1 cell clones were selected with 1.2 mg/ml G418. LNCaP, PC3, DU145, PNT-2 and RWPE-1 cell clones were selected with 1 mg/ml G418. Specific downregulation of GRP78 expression was achieved by transfecting siRNA-duplexes (GRP78∶5′-[…]-3′) twice in 72 h using HiPerfect™ (Qiagen Hilden, Germany). siRNA against GFP (5′-[…]-3′) was used as a control. Western blot analysis was performed as previously described.
Figure 3 The Bag-1 peptide modulates the UPR and sensitizes 22Rv.1 cells to ER-stress. A. UPR modulation upon Bag-1 peptide overexpression. Pooled clones of 22Rv.1 cells transfected with pcDNA3.1-HA-Bag-1 68 amino acid peptide or an empty expression vector were treated with 300 nM thapsigargin (TG) for the indicated time points. Cells were lysed and subjected to Western blot analysis using the indicated antibodies or phospho-specific antibodies. B. The Bag-1 peptide sensitizes 22Rv.1 cells to ER-stress induced apoptosis. Pooled clones of 22Rv.1 transfected with the Bag-1 peptide or the empty expression vector were treated with thapsigargin (TG) or glucose-starved (GS) for 24 h. The cells were lysed and subjected to Western blot analysis using anti-PARP and caspase 4 specific antibodies. Anti-HA antibody was used to detect the HA-Bag-1 peptide. […] C. […] Pooled clones of 22Rv.1 expressing HA-tagged Bag-1 peptide or an empty expression vector were transfected with GRP78/BiP siRNA or control GFP siRNA. The cells were lysed and Western blot was carried out with anti-PARP, anti-GRP78 and anti-HA antibodies. β-actin antibody was used to determine the level of protein loaded on the gel.
Supplementary file pone.0045690.s005.tif: Figure S5 Knock-down of CHOP impairs the Bag-1 peptide-mediated increase in apoptosis. The action of the Bag-1 peptide is dependent on CHOP. Pooled clones of 22Rv.1 expressing an empty expression vector (lane 1 to 4) or an HA-tagged Bag-1 peptide (lane 5 to 8) were transfected with control GFP siRNA (lane 1–2 and 5–6) or CHOP siRNA (lane 3–4 and 7–8). After treatment with 300 nM thapsigargin (TG) for 24 h, cells were lysed and Western blot was carried out with anti-PARP, anti-CHOP and anti-HA antibodies. β-actin antibody was used to determine the level of protein loaded on the gel. (TIF) Click here for additional data file.
Supplementary file pone.0045690.s006.tif: Figure S6 Overexpression of the Bag-1 peptide increases Capase-7 cleavage and JNK expression. 22Rv.1 cells stably transfected with an empty vector control (lane 1–2) or a plasmid encoding an HA-tagged Bag-1 peptide (lane 3–4) were treated with 300 nM thapsigargin (TG) for 24 h and harvested for Western blot anaysis. Specific antibodies against JNK (Cell Signaling, Frankfurt am Main, Germany), cleaved Caspase-7 (Cell Signaling, Frankfurt am Main, Germany), HA (HAA.11 clone 16B12, Covance, Munich, Germany) or β-actin (Sigma, Steinheim, Germany) were used in the experiment. (TIF) Click here for additional data file.

19-mer: Bag-1L 202–220 (TPLSALGIQDGCRVMLIGK; not fully specified)
DU145 growth in clonogenic assay (DU145 cells): inhibited growth
LNCaP growth in clonogenic assay (LNCaP cells): inhibited growth
PC3 growth in clonogenic assay (PC3 cells): inhibited growth
PNT-2 growth in clonogenic assay (PNT-2 cells): not growth inhibited
RWPE-1 growth in clonogenic assay (RWPE-1 cells): not growth inhibited

B1: Bag-1 peptide: internal sequence of 68 amino acids of Bag-1 (Bag1-L 202–269), HA-tagged, expressed from pcDNA3 (peptide)
chain: TPLSALGIQDGCRVMLIGKKNSPQEEVELKKLKHLEKSVEKIADQLEELNKELTGIQQGFLPKDLQAE
modifications: also: HA tag, end not given here
PARP cleavage, GFP siRNA control, no ER stress (22Rv.1 cells; 22Rv.1 cells expressing Bag-1 peptide vs vector, no ER stress): increase in the PARP cleavage even in the absence of ER stress
PARP cleavage, GRP78/BiP knock-down (22Rv.1 cells; 22Rv.1 cells transfected with GRP78/BiP siRNA, Bag-1 peptide vs vector): no difference in the cleavage pattern was further observed
caspase 4 and PARP cleavage, no ER stress (22Rv.1 cells; 22Rv.1 cells, no stressor, vs vector control): both caspase 4 and PARP cleavage was increased
CHOP expression and PARP cleavage (22Rv.1 cells; 22Rv.1 cells, thapsigargin 300 nM 24 h, Bag-1 peptide vs vector control): further enhanced in the cells expressing the Bag-1 peptide
JNK expression and caspase 7 cleavage (22Rv.1 cells; 22Rv.1 cells, thapsigargin 300 nM 24 h, vs vector control): enhanced expression of JNK and caspase 7 cleavage
PARP cleavage after CHOP siRNA knockdown (22Rv.1 cells; 22Rv.1 cells, thapsigargin 300 nM 24 h, both vector and peptide cell lines): PARP cleavage was reduced in both cells line
caspase 4 expression and PARP cleavage, with ER stress (22Rv.1 cells; 22Rv.1 cells, thapsigargin or glucose starvation 24 h, vs vector control): a tremendous increase in caspase 4 expression and PARP cleavage
